We go through 20 molecules from patent US20240018502A1.

This test addresses plasma purified human complement protein C3 (human) (UniProt P01024). Nature of the test: cell-based or functional assay.

plasma purified human complement protein C3 (human), sequence (P01024 23-667, chain 1 of 2): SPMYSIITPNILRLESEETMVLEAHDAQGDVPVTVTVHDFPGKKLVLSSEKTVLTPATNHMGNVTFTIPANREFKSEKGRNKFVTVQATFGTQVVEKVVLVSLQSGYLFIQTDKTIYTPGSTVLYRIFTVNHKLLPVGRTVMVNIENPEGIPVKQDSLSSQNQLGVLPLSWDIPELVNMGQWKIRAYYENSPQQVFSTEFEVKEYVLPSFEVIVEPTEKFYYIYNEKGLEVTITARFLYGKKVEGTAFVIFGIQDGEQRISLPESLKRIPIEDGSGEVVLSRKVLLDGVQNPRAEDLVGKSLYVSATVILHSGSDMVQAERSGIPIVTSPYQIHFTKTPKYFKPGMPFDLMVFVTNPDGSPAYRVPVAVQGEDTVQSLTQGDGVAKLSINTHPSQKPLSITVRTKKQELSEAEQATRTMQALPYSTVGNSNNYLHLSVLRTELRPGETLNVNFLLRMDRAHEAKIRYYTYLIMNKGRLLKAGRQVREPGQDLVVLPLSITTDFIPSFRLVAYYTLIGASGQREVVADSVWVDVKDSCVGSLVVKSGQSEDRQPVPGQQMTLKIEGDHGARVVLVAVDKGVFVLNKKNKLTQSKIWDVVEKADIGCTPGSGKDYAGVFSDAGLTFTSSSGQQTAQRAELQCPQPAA
plasma purified human complement protein C3 (human), sequence (P01024 672-1663, chain 2 of 2): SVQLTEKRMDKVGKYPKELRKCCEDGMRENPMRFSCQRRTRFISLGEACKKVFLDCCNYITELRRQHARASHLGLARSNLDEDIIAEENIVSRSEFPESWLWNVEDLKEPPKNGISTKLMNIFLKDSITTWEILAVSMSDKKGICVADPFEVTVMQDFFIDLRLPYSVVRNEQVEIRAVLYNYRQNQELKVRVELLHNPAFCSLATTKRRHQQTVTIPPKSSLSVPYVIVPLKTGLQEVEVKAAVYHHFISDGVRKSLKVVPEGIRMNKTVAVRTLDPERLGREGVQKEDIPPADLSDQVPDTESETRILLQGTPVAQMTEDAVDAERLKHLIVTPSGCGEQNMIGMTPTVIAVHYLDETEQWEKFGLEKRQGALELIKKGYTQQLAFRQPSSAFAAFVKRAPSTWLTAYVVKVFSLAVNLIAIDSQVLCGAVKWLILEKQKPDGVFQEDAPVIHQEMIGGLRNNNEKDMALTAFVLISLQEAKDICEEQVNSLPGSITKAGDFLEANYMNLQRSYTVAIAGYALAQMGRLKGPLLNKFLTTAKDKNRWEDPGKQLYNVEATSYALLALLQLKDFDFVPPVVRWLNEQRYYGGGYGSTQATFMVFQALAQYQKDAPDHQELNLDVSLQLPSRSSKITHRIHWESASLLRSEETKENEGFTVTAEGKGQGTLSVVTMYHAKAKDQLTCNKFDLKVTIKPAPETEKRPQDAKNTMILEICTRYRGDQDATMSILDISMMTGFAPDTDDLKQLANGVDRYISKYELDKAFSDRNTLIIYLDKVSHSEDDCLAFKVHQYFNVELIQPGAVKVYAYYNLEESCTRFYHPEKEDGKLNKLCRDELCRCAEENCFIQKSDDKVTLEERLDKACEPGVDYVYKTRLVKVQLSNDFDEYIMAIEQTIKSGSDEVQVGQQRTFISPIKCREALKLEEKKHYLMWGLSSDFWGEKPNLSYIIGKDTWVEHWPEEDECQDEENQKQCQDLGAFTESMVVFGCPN

B1: MTSP-1 H40R/I41H/F97T/ins97aE/T98G/F99L/C122S/Q175L/Q192E (enzyme)
chain: VVGGTDADEGEWPWQVSLHALGQGRHCGASLISPNWLVSAAHCYIDDRGFRYSDPTQWTAFLGLHDQSQRSAPGVQERRLKRIISHPFFNDTEGLDYDIALLELEKPAEYSSMVRPISLPDASHVFPAGKAIWVTGWGHTQYGGTGALILQKGEIRVINQTTCENLLPQLITPRMMCVGFLSGGVDSCEGDSGGPLSSVEADGRIFQAGVVSWGDGCAQRNKPGVYTRLPLFRDWIKENTGV
B1 returned an EC50 of hC3 cleavage of 5.86 µM.

B2: MTSP-1 H40R/I41H/F97E/ins97aE/T98G/F99L/C122S/Q175L/Q192G (enzyme)
chain: VVGGTDADEGEWPWQVSLHALGQGRHCGASLISPNWLVSAAHCYIDDRGFRYSDPTQWTAFLGLHDQSQRSAPGVQERRLKRIISHPFFNDEEGLDYDIALLELEKPAEYSSMVRPISLPDASHVFPAGKAIWVTGWGHTQYGGTGALILQKGEIRVINQTTCENLLPQLITPRMMCVGFLSGGVDSCGGDSGGPLSSVEADGRIFQAGVVSWGDGCAQRNKPGVYTRLPLFRDWIKENTGV
In the case of B2, the EC50 of hC3 cleavage was found to be 0.0824 µM.

B3: MTSP-1 H40R/I41H/F97D/ins97aE/T98G/F99L/C122S/Q175L/Q192G (enzyme)
chain: VVGGTDADEGEWPWQVSLHALGQGRHCGASLISPNWLVSAAHCYIDDRGFRYSDPTQWTAFLGLHDQSQRSAPGVQERRLKRIISHPFFNDDEGLDYDIALLELEKPAEYSSMVRPISLPDASHVFPAGKAIWVTGWGHTQYGGTGALILQKGEIRVINQTTCENLLPQLITPRMMCVGFLSGGVDSCGGDSGGPLSSVEADGRIFQAGVVSWGDGCAQRNKPGVYTRLPLFRDWIKENTGV
For the molecule B3, the EC50 of hC3 cleavage was found to be 0.0397 µM.

B4: MTSP-1 H40R/I41H/F97T/ins97aE/T98G/F99L/C122S/Q175L/Q192G (enzyme)
chain: VVGGTDADEGEWPWQVSLHALGQGRHCGASLISPNWLVSAAHCYIDDRGFRYSDPTQWTAFLGLHDQSQRSAPGVQERRLKRIISHPFFNDTEGLDYDIALLELEKPAEYSSMVRPISLPDASHVFPAGKAIWVTGWGHTQYGGTGALILQKGEIRVINQTTCENLLPQLITPRMMCVGFLSGGVDSCGGDSGGPLSSVEADGRIFQAGVVSWGDGCAQRNKPGVYTRLPLFRDWIKENTGV
Regarding B4, the EC50 of hC3 cleavage came out at 0.046 µM.

B5: MTSP-1 H40R/I41H/F97D/F99L/C122S/G151N/Q175M/Q192A/D217N/K224R (enzyme)
chain: VVGGTDADEGEWPWQVSLHALGQGRHCGASLISPNWLVSAAHCYIDDRGFRYSDPTQWTAFLGLHDQSQRSAPGVQERRLKRIISHPFFNDDTLDYDIALLELEKPAEYSSMVRPISLPDASHVFPAGKAIWVTGWGHTQYGGTNALILQKGEIRVINQTTCENLLPQMITPRMMCVGFLSGGVDSCAGDSGGPLSSVEADGRIFQAGVVSWGNGCAQRNRPGVYTRLPLFRDWIKENTGV
Take B5: the EC50 of hC3 cleavage was determined as 0.563 µM.

B6: MTSP-1 H40R/I41H/F97D/C122S/G151N/L153R (enzyme)
chain: VVGGTDADEGEWPWQVSLHALGQGRHCGASLISPNWLVSAAHCYIDDRGFRYSDPTQWTAFLGLHDQSQRSAPGVQERRLKRIISHPFFNDDTFDYDIALLELEKPAEYSSMVRPISLPDASHVFPAGKAIWVTGWGHTQYGGTNARILQKGEIRVINQTTCENLLPQQITPRMMCVGFLSGGVDSCQGDSGGPLSSVEADGRIFQAGVVSWGDGCAQRNKPGVYTRLPLFRDWIKENTGV
Consider B6, for which the EC50 of hC3 cleavage was determined as 0.126 µM.

B7: MTSP-1 H40R/I41H/F97D/F99L/C122S/G151N/L153R (enzyme)
chain: VVGGTDADEGEWPWQVSLHALGQGRHCGASLISPNWLVSAAHCYIDDRGFRYSDPTQWTAFLGLHDQSQRSAPGVQERRLKRIISHPFFNDDTLDYDIALLELEKPAEYSSMVRPISLPDASHVFPAGKAIWVTGWGHTQYGGTNARILQKGEIRVINQTTCENLLPQQITPRMMCVGFLSGGVDSCQGDSGGPLSSVEADGRIFQAGVVSWGDGCAQRNKPGVYTRLPLFRDWIKENTGV
Take B7: the EC50 of hC3 cleavage amounted to 0.0599 µM.

B8: MTSP-1 H40K/I41M/F99L/C122S/T150A/G151R/Q192G (enzyme)
chain: VVGGTDADEGEWPWQVSLHALGQGKMCGASLISPNWLVSAAHCYIDDRGFRYSDPTQWTAFLGLHDQSQRSAPGVQERRLKRIISHPFFNDFTLDYDIALLELEKPAEYSSMVRPISLPDASHVFPAGKAIWVTGWGHTQYGGARALILQKGEIRVINQTTCENLLPQQITPRMMCVGFLSGGVDSCGGDSGGPLSSVEADGRIFQAGVVSWGDGCAQRNKPGVYTRLPLFRDWIKENTGV
The molecule B8 returned an EC50 of hC3 cleavage of 0.11 µM.

B9: MTSP-1 H40R/I41H/F97D/F99L/C122S/G151N/Q192H/P232S (enzyme)
chain: VVGGTDADEGEWPWQVSLHALGQGRHCGASLISPNWLVSAAHCYIDDRGFRYSDPTQWTAFLGLHDQSQRSAPGVQERRLKRIISHPFFNDDTLDYDIALLELEKPAEYSSMVRPISLPDASHVFPAGKAIWVTGWGHTQYGGTNALILQKGEIRVINQTTCENLLPQQITPRMMCVGFLSGGVDSCHGDSGGPLSSVEADGRIFQAGVVSWGDGCAQRNKPGVYTRLSLFRDWIKENTGV
With B9, the EC50 of hC3 cleavage turned out to be 0.262 µM.

B10: MTSP-1 H40K/I41M/F97D/F99L/C122S/G151N/Q175M/Q192A/D217N/K224R (enzyme)
chain: VVGGTDADEGEWPWQVSLHALGQGKMCGASLISPNWLVSAAHCYIDDRGFRYSDPTQWTAFLGLHDQSQRSAPGVQERRLKRIISHPFFNDDTLDYDIALLELEKPAEYSSMVRPISLPDASHVFPAGKAIWVTGWGHTQYGGTNALILQKGEIRVINQTTCENLLPQMITPRMMCVGFLSGGVDSCAGDSGGPLSSVEADGRIFQAGVVSWGNGCAQRNRPGVYTRLPLFRDWIKENTGV
Molecule B10 registered an EC50 of hC3 cleavage of 1.23 µM.

B11: MTSP-1 H40K/I41M/F97D/F99L/C122S/G151N/Q175M/Q192D/D217N/K224R (enzyme)
chain: VVGGTDADEGEWPWQVSLHALGQGKMCGASLISPNWLVSAAHCYIDDRGFRYSDPTQWTAFLGLHDQSQRSAPGVQERRLKRIISHPFFNDDTLDYDIALLELEKPAEYSSMVRPISLPDASHVFPAGKAIWVTGWGHTQYGGTNALILQKGEIRVINQTTCENLLPQMITPRMMCVGFLSGGVDSCDGDSGGPLSSVEADGRIFQAGVVSWGNGCAQRNRPGVYTRLPLFRDWIKENTGV
With B11, the EC50 of hC3 cleavage worked out at 0.00974 µM.

B12: MTSP-1 H40R/I41H/F97D/F99L/C122S/G151N/Q192H (enzyme)
chain: VVGGTDADEGEWPWQVSLHALGQGRHCGASLISPNWLVSAAHCYIDDRGFRYSDPTQWTAFLGLHDQSQRSAPGVQERRLKRIISHPFFNDDTLDYDIALLELEKPAEYSSMVRPISLPDASHVFPAGKAIWVTGWGHTQYGGTNALILQKGEIRVINQTTCENLLPQQITPRMMCVGFLSGGVDSCHGDSGGPLSSVEADGRIFQAGVVSWGDGCAQRNKPGVYTRLPLFRDWIKENTGV
For B12, the EC50 of hC3 cleavage worked out at 0.179 µM.

B13: MTSP-1 H40K/I41M/F97D/F99L/C122S/G151N/Q175L/Q192A/D217N/K224R (enzyme)
chain: VVGGTDADEGEWPWQVSLHALGQGKMCGASLISPNWLVSAAHCYIDDRGFRYSDPTQWTAFLGLHDQSQRSAPGVQERRLKRIISHPFFNDDTLDYDIALLELEKPAEYSSMVRPISLPDASHVFPAGKAIWVTGWGHTQYGGTNALILQKGEIRVINQTTCENLLPQLITPRMMCVGFLSGGVDSCAGDSGGPLSSVEADGRIFQAGVVSWGNGCAQRNRPGVYTRLPLFRDWIKENTGV
Regarding B13, the EC50 of hC3 cleavage was 1.29 µM.

B14: MTSP-1 H40R/I41H/F97D/F99L/C122S/Q175M/Q192D/D217N/K224R (enzyme)
chain: VVGGTDADEGEWPWQVSLHALGQGRHCGASLISPNWLVSAAHCYIDDRGFRYSDPTQWTAFLGLHDQSQRSAPGVQERRLKRIISHPFFNDDTLDYDIALLELEKPAEYSSMVRPISLPDASHVFPAGKAIWVTGWGHTQYGGTGALILQKGEIRVINQTTCENLLPQMITPRMMCVGFLSGGVDSCDGDSGGPLSSVEADGRIFQAGVVSWGNGCAQRNRPGVYTRLPLFRDWIKENTGV
The molecule B14 yielded an EC50 of hC3 cleavage of 9.99 µM.

B15: MTSP-1 H40R/I41H/F97D/C122S/G151N/L153R/V202M (enzyme)
chain: VVGGTDADEGEWPWQVSLHALGQGRHCGASLISPNWLVSAAHCYIDDRGFRYSDPTQWTAFLGLHDQSQRSAPGVQERRLKRIISHPFFNDDTFDYDIALLELEKPAEYSSMVRPISLPDASHVFPAGKAIWVTGWGHTQYGGTNARILQKGEIRVINQTTCENLLPQQITPRMMCVGFLSGGVDSCQGDSGGPLSSMEADGRIFQAGVVSWGDGCAQRNKPGVYTRLPLFRDWIKENTGV
Regarding B15, the EC50 of hC3 cleavage is 0.103 µM.

B16: MTSP-1 H40K/I41M/F97D/F99L/C122S/Q175M/Q192D/D217N/K224R (enzyme)
chain: VVGGTDADEGEWPWQVSLHALGQGKMCGASLISPNWLVSAAHCYIDDRGFRYSDPTQWTAFLGLHDQSQRSAPGVQERRLKRIISHPFFNDDTLDYDIALLELEKPAEYSSMVRPISLPDASHVFPAGKAIWVTGWGHTQYGGTGALILQKGEIRVINQTTCENLLPQMITPRMMCVGFLSGGVDSCDGDSGGPLSSVEADGRIFQAGVVSWGNGCAQRNRPGVYTRLPLFRDWIKENTGV
B16 came in with an EC50 of hC3 cleavage of 0.00964 µM.

B17: MTSP-1 H40K/I41M/F97D/F99L/C122S/Q175M/D217N/K224R (enzyme)
chain: VVGGTDADEGEWPWQVSLHALGQGKMCGASLISPNWLVSAAHCYIDDRGFRYSDPTQWTAFLGLHDQSQRSAPGVQERRLKRIISHPFFNDDTLDYDIALLELEKPAEYSSMVRPISLPDASHVFPAGKAIWVTGWGHTQYGGTGALILQKGEIRVINQTTCENLLPQMITPRMMCVGFLSGGVDSCQGDSGGPLSSVEADGRIFQAGVVSWGNGCAQRNRPGVYTRLPLFRDWIKENTGV
Molecule B17 had an EC50 of hC3 cleavage of 0.144 µM.

B18: MTSP-1 H40R/I41H/F97D/F99L/C122S/Q175M/D217N/K224R (enzyme)
chain: VVGGTDADEGEWPWQVSLHALGQGRHCGASLISPNWLVSAAHCYIDDRGFRYSDPTQWTAFLGLHDQSQRSAPGVQERRLKRIISHPFFNDDTLDYDIALLELEKPAEYSSMVRPISLPDASHVFPAGKAIWVTGWGHTQYGGTGALILQKGEIRVINQTTCENLLPQMITPRMMCVGFLSGGVDSCQGDSGGPLSSVEADGRIFQAGVVSWGNGCAQRNRPGVYTRLPLFRDWIKENTGV
B18 had an EC50 of hC3 cleavage of 0.103 µM.

B19: MTSP-1 H40R/I41H/F97D/F99L/C122S/G151N/Q175L/Q192A/D217N/K224R (enzyme)
chain: VVGGTDADEGEWPWQVSLHALGQGRHCGASLISPNWLVSAAHCYIDDRGFRYSDPTQWTAFLGLHDQSQRSAPGVQERRLKRIISHPFFNDDTLDYDIALLELEKPAEYSSMVRPISLPDASHVFPAGKAIWVTGWGHTQYGGTNALILQKGEIRVINQTTCENLLPQLITPRMMCVGFLSGGVDSCAGDSGGPLSSVEADGRIFQAGVVSWGNGCAQRNRPGVYTRLPLFRDWIKENTGV
B19 returned an EC50 of hC3 cleavage of 0.54 µM.

B20: MTSP-1 H40R/I41H/F97D/C122S/G133D/G151N (enzyme)
chain: VVGGTDADEGEWPWQVSLHALGQGRHCGASLISPNWLVSAAHCYIDDRGFRYSDPTQWTAFLGLHDQSQRSAPGVQERRLKRIISHPFFNDDTFDYDIALLELEKPAEYSSMVRPISLPDASHVFPADKAIWVTGWGHTQYGGTNALILQKGEIRVINQTTCENLLPQQITPRMMCVGFLSGGVDSCQGDSGGPLSSVEADGRIFQAGVVSWGDGCAQRNKPGVYTRLPLFRDWIKENTGV
B20: the EC50 of hC3 cleavage amounted to 0.0604 µM.
